Reference: patent US10501748B2, “Methods and compositions for integration of an exogenous sequence within the genome of plants” (Dow AgroSciences LLC, priority 2013, dated 2019)

B1: pDAS000153: plasmid donor with 41-bp sequence flanked by ZFN 29732/29730 sites; SEQ ID NO:78, 79 (nucleic acid)
chain 1: TGGATATCATAGTCCCGCATCAGGAGCACGTGCTGCCTATGATCCCAAGCGGTGGTGCTTTCAAGGACATGATCATGGGTTAGGTGCTGGTGGTCCGAAGGTCCACGCCGCCAACTACGTGGATATCATAGTCCCGCATCAGGAGCACGTGCTGCCTATGATCCCAAGCGGTGGTGCTTTCAAGGACATGATCATGG
chain 2: CCATGATCATGTCCTTGAAAGCACCACCGCTTGGGATCATAGGCAGCACGTGCTCCTGATGCGGGACTATGATATCCACGTAGTTGGCGGCGTGGACCTTCGGACCACCAGCACCTAACCCATGATCATGTCCTTGAAAGCACCACCGCTTGGGATCATAGGCAGCACGTGCTCCTGATGCGGGACTATGATATCCA
modifications: pDAS000153
B2: pDAS000150: plasmid donor with 41-bp sequence flanked by sites for ZFNs 29732/29730 and 30012/30018; SEQ ID NO:80, 81 (nucleic acid)
chain 1: TGGATATCATAGTCCCGCATCAGGAGCACGTGCTGCCTATGATCCCAAGCGGTGGTGCTTTCAAGGACATGATCATGGGTTAGGTGCTGGTGGTCCGAAGGTCCACGCCGCCAACTACGGATGGCAGGACCTCGTACTGAAATTTCGACCTACAAGACCTACAAGTGTGACATGCGCAATCAGCATGATGCCCGCGT
chain 2: ACGCGGGCATCATGCTGATTGCGCATGTCACACTTGTAGGTCTTGTAGGTCGAAATTTCAGTACGAGGTCCTGCCATCCGTAGTTGGCGGCGTGGACCTTCGGACCACCAGCACCTAACCCATGATCATGTCCTTGAAAGCACCACCGCTTGGGATCATAGGCAGCACGTGCTCCTGATGCGGGACTATGATATCCA
modifications: pDAS000150

Legend:
[1] = tested on: endogenous AHAS genes (three homoeologous copies); assay: transient assay of ZFN-mediated NHEJ-directed AHAS editing in biolistically transfected scutella; format: cell-based, Triticum aestivum; settings: for Editing Frequency (ppm): NHEJ, scutella; for molecular evidence for ZFN-mediated NHEJ-directed gene editing: samples of SEC protoplasts and scutella, with pDAB109350 (pDAS000149, pDAS000150 also pDAB109360)
Source text: (§1) The first type of donor design was a linear, double stranded DNA molecule comprising 41-bp of sequence that shared no homology with the endogenous AHAS genes in wheat. Two donor DNA molecules were designed, each to target the three homoeologous copies of the AHAS gene. Both donor DNA molecules had protruding 5′ and 3′ ends to provide ligation overhangs to facilitate ZFN-mediated NHEJ-directed DNA repair. The two donor DNA molecules differed by the sequence at their protruding 3′ end. The first donor DNA molecule, pDAS000152 (SEQ ID NO:74 and SEQ ID NO:75), was designed to provide ligation overhangs that were compatible with those generated by cleavage of the endogenous AHAS genes by ZFNs 29732 and 29730 (encoded on plasmid pDAB109350) and to result in the insertion of the 41-bp donor molecule into the endogenous AHAS gene at the site of the double strand DNA break via NHEJ-directed DNA repair. The second donor DNA molecule pDAS000149 (SEQ ID NO: 76 and SEQ ID NO:77) was designed to provide ligation overhangs that were compatible with those generated by the dual cleavage of the endogenous AHAS genes by ZFNs 29732 and 29730 (encoded on plasmid pDAB109350) and ZFNs 30012 and 30018 (encoded on plasmid pDAB109360) and to result in the replacement of the endogenous AHAS sequence contained between the two double strand DNA breaks created by the ZFNs with the 41-bp donor molecule via NHEJ-directed DNA repair.
(§2) The second type of donor was a plasmid DNA vector containing 41-bp of sequence that shared no homology with the endogenous AHAS genes in wheat and that was flanked on either side by sequence that was recognized by the ZFN(s) used to create double strand DNA breaks in the endogenous AHAS genes. This donor design allowed in planta release of the unique 41-bp sequence from the plasmid DNA molecule by the same ZFN(s) used to cleave target sites in the endogenous AHAS genes, and simultaneous generation of protruding ends that were suitable for overhang ligation of the released 41-bp sequence into the endogenous AHAS genes via NHEJ-directed DNA repair. Two plasmid donor DNA molecules were designed, each to target the three homoeologous copies of the AHAS gene. The first plasmid donor molecule, pDAS000153 (SED ID NO:78 and SEQ ID NO:79) (FIG. 8), was designed to provide ligation overhangs on the released 41-bp DNA fragment that were compatible with those generated by cleavage of the endogenous AHAS genes by ZFNs 29732 and 29730 (encoded on plasmid pDAB109350). The second plasmid donor molecule, pDAS000150 (SEQ ID NO:80 and SEQ ID NO:81) (FIG. 9), was designed to provide ligation overhangs on the released 41-bp DNA fragment that were at one end compatible with those generated by ZFNs 29732 and 29730 (encoded on plasmid pDAB109350) and at the other end compatible with those generated by ZFNs 30012 and 30018 (encoded on plasmid pDAB109360). This design allowed the replacement of the endogenous AHAS sequence contained between the two double strand DNA breaks created by ZFNs 29732 and 29730 and ZFNs 30012 and 30018 with the 41-bp donor molecule sequence.
(§3) Seedlings of the donor wheat line were grown in an environment controlled growth room maintained at 18/16° C. (day/night) and a 16/8 hour (day/night) photoperiod with lighting provided at […]. Wheat spikes were collected at 12-14 days post-anthesis and were surface sterilized by soaking for 1 min in 70% (v/v) ethanol. The spikes were threshed and the immature seeds were sterilized for 15 min in 17% (v/v) bleach with gentle shaking, followed by rinsing at least three times with sterile distilled water. The embryos were aseptically isolated from the immature seeds under a dissecting microscope. The embryonic axis was removed using a sharp scalpel and discarded. The scutella were placed into a 9 cm PETRI™ dish containing osmotic MS (E3 maltose) medium, with the uncut scutellum oriented upwards. A total of 20 scutella were plated onto each 9 cm PETRI™ dish. […]

[2] = tested on: endogenous AHAS genes (three homoeologous copies); assay: transient assay of ZFN-mediated NHEJ-directed AHAS editing in PEG-transfected SEC protoplasts; format: cell-based, Triticum aestivum; settings: SEC protoplast
Source text: as §1, §2
as §3, with “2-4 medium without TIMENTIN™,” for “osmotic MS (E3 maltose) medium,”, “25” for “20”

[3] = wheat sub-genome A, ZFN 29732-2A-29730, ratio 5:1
[4] = wheat sub-genome A, ZFN 29732-2A-29730, ratio 10:1
[5] = wheat sub-genome A, ZFN n/a (donor only), average of three biological replicates
[6] = wheat sub-genome B, ZFN 29732-2A-29730, ratio 5:1
[7] = wheat sub-genome B, ZFN 29732-2A-29730, ratio 10:1
[8] = wheat sub-genome B, ZFN n/a (donor only)
[9] = wheat sub-genome D, ZFN 29732-2A-29730, ratio 5:1
[10] = wheat sub-genome D, ZFN 29732-2A-29730, ratio 10:1
[11] = wheat sub-genome D, ZFN n/a (donor only)
[12] = wheat sub-genome A, ZFN 29732-2A-29730, ratio 20:1
[13] = wheat sub-genome B, ZFN 29732-2A-29730, ratio 20:1
[14] = wheat sub-genome D, ZFN 29732-2A-29730, ratio 20:1

| Molecule | Editing Frequency (ppm) [1, 3] | Editing Frequency (ppm) [1, 4] | Editing Frequency (ppm) [1, 5] | Editing Frequency (ppm) [1, 6] | Editing Frequency (ppm) [1, 7] | Editing Frequency (ppm) [1, 8] | Editing Frequency (ppm) [1, 9] | Editing Frequency (ppm) [1, 10] | Editing Frequency (ppm) [1, 11] | molecular evidence for ZFN-mediated NHEJ-directed gene editing [1] | Editing Frequency (ppm) [2, 3] | Editing Frequency (ppm) [2, 4] | Editing Frequency (ppm) [2, 12] | Editing Frequency (ppm) [2, 5] | Editing Frequency (ppm) [2, 6] | Editing Frequency (ppm) [2, 7] | Editing Frequency (ppm) [2, 13] | Editing Frequency (ppm) [2, 8] | Editing Frequency (ppm) [2, 9] | Editing Frequency (ppm) [2, 10] | also measured |
| --- | --- | --- | --- | --- | --- | --- | --- | --- | --- | --- | --- | --- | --- | --- | --- | --- | --- | --- | --- | --- | --- |
| B1 | 4 ppm | 0 ppm | 0 ppm | 0 ppm | 0 ppm | 0 ppm | 0 ppm | 0 ppm | 0 ppm | poor evidence | 0 ppm | 0 ppm | 0 ppm | 0 ppm | 0 ppm | 0 ppm | 0 ppm | 0 ppm | 0 ppm | 0 ppm | Editing Frequency (ppm) [2, 14]: 0 ppm; Editing Frequency (ppm) [2, 11]: 0 ppm |
| B2 | 1 ppm | 0 ppm | 0 ppm | 0 ppm | 0 ppm | 0 ppm | 4 ppm | 0 ppm | 0 ppm | Limited evidence | 0 ppm | 0 ppm | 0 ppm | 0 ppm | 0 ppm | 0 ppm | 0 ppm | 0 ppm | 0 ppm | 0 ppm | Editing Frequency (ppm) [2, 14]: 0 ppm; Editing Frequency (ppm) [2, 11]: 0 ppm |
